The record followed here is the supplement of paper PMC5998384.

The subject of series [1] is HeLa Kyoto. The series is described as follows: solubility change mitosis vs G1/S (difference of NP-40 vs SDS log2 ratios) (log2 ratio difference); higher = more soluble in mitosis.
Series [2] concerns HeLa Kyoto. Briefly: solubility in G1/S (NP-40 vs SDS abundance) (log2 ratio); higher = more soluble. The settings on record: cell cycle stage: G1/S.
In series [3] the test system is HeLa Kyoto. The series is described as follows: thermal stability score vs G1/S (z-score of summed log2 fold changes over temperatures); higher = more thermally stable than in G1/S.
Series [4] deals with HeLa Kyoto. The series is described as follows: melting temperature (median over replicates), in situ; higher = more thermally stable.
Where [5] appears, read: cell cycle stage: early G1 (4.5 h after nocodazole release).
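Wherever melting temperature (median over replicates), in situ is given: HeLa Kyoto cells synchronized by double thymidine or nocodazole block, proteins quantified by TMT10plex mass spectrometry, three independent biological replicates.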
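Wherever solubility change mitosis vs G1/S (difference of NP-40 vs SDS log2 ratios) is given: synchronized HeLa Kyoto cells (double thymidine block for G1/S, nocodazole release for mitosis), protein amounts in NP-40 versus SDS lysates quantified by mass spectrometry, three biological replicates.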
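Wherever solubility in G1/S (NP-40 vs SDS abundance) is given: HeLa Kyoto cells arrested at G1/S by double thymidine block, proteins quantified by TMT10plex mass spectrometry in mild NP-40 versus SDS extracts, three biological replicates.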
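Wherever thermal stability score vs G1/S (z-score of summed log2 fold changes over temperatures) is given: synchronized HeLa Kyoto cells, proteins quantified by TMT10plex mass spectrometry, three biological replicates, mitosis taken 0.5 h after nocodazole release, G1/S directly after double thymidine block.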

Regarding “MNLLPKSSREFGSVDYWEKFFQQRGKKAFEWYGTYLELCGVLHKYIKPREKVLVIGCGNSELSEQLYDVGYRDIVNIDISEVVIKQMKECNATRRPQMSFLKMDMTQMEFPDASFQVVLDKGTLDAVLTDEEEKTLQQVDRMLAEVGRVLQVGGRYLCISLAQAHILKKAVGHFSREGWMVRVHQVANSQDQVLEAEPQFSLPVFAFIMTKFRPVPGSALQIFELCAQEQRKPVRLESAERLAEAVQERQQYAWLCSQLRRKARLGSVSLDLCDGDTGEPRYTLHVVDSPTVKPSRDNHFAIFIIPQGRETEWLFGMDEGRKQLAASAGFRRLITVALHRGQQYESMDHIQAELSARVMELAPAGMPTQQQVPFLSVGGDIGVRTVQHQDCSPLSGDYVIEDVQGDDKRYFRRLIFLSNRNVVQSEARLLKDVSHKAQKKRKKDRKKQRPADAEDLPAAPGQSIDKSYLCCEHHKAMIAGLALLRNPELLLEIPLALLVVGLGGGSLPLFVHDHFPKSCIDAVEIDPSMLEVATQWFGFSQSDRMKVHIADGLDYIASLAGGGEARPCYDVIMFDVDSKDPTLGMSCPPPAFVEQSFLQKVKSILTPEGVFILNLVCRDLGLKDSVLAGLKAVFPLLYVRRIEGEVNEILFCQLHPEQKLATPELLETAQALERTLRKPGRGWDDTYVLSDMLKTVKIV [METTL13]”, in series [1], the “solubility change mitosis (log2)” value was -0.0232. In addition, the “solubility in G1/S (log2)” value in series [2] is -0.167. In addition, the thermal stability score in series [3] (setting [5]) stood at 0.527; in series [3] (cell cycle stage: mitosis) it was 1.18. Further, the results for the melting temperature in series [4] (cell cycle stage: G1/S) and in series [4] (cell cycle stage: mitosis) were 49.3 °C and 48.9 °C, respectively.

Take “MNMTQARVLVAAVVGLVAVLLYASIHKIEEGHLAVYYRGGALLTSPSGPGYHIMLPFITTFRSVQTTLQTDEVKNVPCGTSGGVMIYIDRIEVVNMLAPYAVFDIVRNYTADYDKTLIFNKIHHELNQFCSAHTLQEVYIELFDQIDENLKQALQKDLNLMAPGLTIQAVRVTKPKIPEAIRRNFELMEAEKTKLLIAAQKQKVVEKEAETERKKAVIEAEKIAQVAKIRFQQKVMEKETEKRISEIEDAAFLAREKAKADAEYYAAHKYATSNKHKLTPEYLELKKYQAIASNSKIYFGSNIPNMFVDSSCALKYSDIRTGRESSLPSKEALEPSGENVIQNKESTG [ERLIN1]”: the “solubility change mitosis (log2)” value in series [1] is -0.0762. The “solubility in G1/S (log2)” value in series [2] turned out to be 0.24. The thermal stability score in series [3] (setting [5]) is 1.82; in series [3] (cell cycle stage: mitosis), 4.38. The melting temperature came out at 52.7 °C in series [4] (cell cycle stage: G1/S) and 53.1 °C in series [4] (cell cycle stage: mitosis).

“MNNHVSSKPSTMKLKHTINPILLYFIHFLISLYTILTYIPFYFFSESRQEKSNRIKAKPVNSKPDSAYRSVNSLDGLASVLYPGCDTLDKVFTYAKNKFKNKRLLGTREVLNEEDEVQPNGKIFKKVILGQYNWLSYEDVFVRAFNFGNGLQMLGQKPKTNIAIFCETRAEWMIAAQACFMYNFQLVTLYATLGGPAIVHALNETEVTNIITSKELLQTKLKDIVSLVPRLRHIITVDGKPPTWSEFPKGIIVHTMAAVEALGAKASMENQPHSKPLPSDIAVIMYTSGSTGLPKGVMISHSNIIAGITGMAERIPELGEEDVYIGYLPLAHVLELSAELVCLSHGCRIGYSSPQTLADQSSKIKKGSKGDTSMLKPTLMAAVPEIMDRIYKNVMNKVSEMSSFQRNLFILAYNYKMEQISKGRNTPLCDSFVFRKVRSLLGGNIRLLLCGGAPLSATTQRFMNICFCCPVGQGYGLTESAGAGTISEVWDYNTGRVGAPLVCCEIKLKNWEEGGYFNTDKPHPRGEILIGGQSVTMGYYKNEAKTKADFFEDENGQRWLCTGDIGEFEPDGCLKIIDRKKDLVKLQAGEYVSLGKVEAALKNLPLVDNICAYANSYHSYVIGFVVPNQKELTELARKKGLKGTWEELCNSCEMENEVLKVLSEAAISASLEKFEIPVKIRLSPEPWTPETGLVTDAFKLKRKELKTHYQADIERMYGRK [ACSL3]”: the “solubility change mitosis (log2)” value in series [1] was -0.129. Besides, the “solubility in G1/S (log2)” value in series [2] was -0.101. The thermal stability score in series [3] (setting [5]) came out at 1.86; in series [3] (cell cycle stage: mitosis), 3.88. For the same sequence, the melting temperature in series [4] (cell cycle stage: G1/S) came to 50.7 °C; in series [4] (cell cycle stage: mitosis), 51.2 °C.

For “MNNLSFSELCCLFCCPPCPGKIASKLAFLPPDPTYTLMCDESGSRWTLHLSERADWQYSSREKDAIECFMTRTSKGNRIACMFVRCSPNAKYTLLFSHGNAVDLGQMSSFYIGLGSRINCNIFSYDYSGYGASSGKPTEKNLYADIEAAWLALRTRYGIRPENVIIYGQSIGTVPSVDLAARYESAAVILHSPLTSGMRVAFPDTKKTYCFDAFPNIDKISKITSPVLIIHGTEDEVIDFSHGLALFERCQRPVEPLWVEGAGHNDVELYGQYLERLKQFVSQELVNL [ABHD17B]”, in series [1], the “solubility change mitosis (log2)” value was -0.163. The “solubility in G1/S (log2)” value in series [2] was found to be 0.0257. The thermal stability score in series [3] (setting [5]) is -2.83; in series [3] (cell cycle stage: mitosis) it was -2.95. In addition, the melting temperature in series [4] (cell cycle stage: G1/S) stood at 54.9 °C; in series [4] (cell cycle stage: mitosis), 54.3 °C.
